In patent US20260167728A1 (published 2026) one finds Kd data, which are given here for 21 molecules.

This experiment has as its target T1, huCD3e-mFc (human, UniProt P07766 23-126).
T1 construct: not shown: mFc, not described
The experiment is described as follows: Pool 3 screen.

T1 sequence (P07766 23-126): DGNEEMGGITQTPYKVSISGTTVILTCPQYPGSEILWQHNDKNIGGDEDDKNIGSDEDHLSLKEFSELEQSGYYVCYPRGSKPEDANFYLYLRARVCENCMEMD

B1: AC3835 (CD3.331) (scFv, V domains shown)
VH: EVQLVESGGGIVQPGGSLRLSCAASGFTFNTYAMNWVRQAPGKGLEWVGRIRTKTNDYATYYADSVKGRFTISRDDSKNTAYLQMNSLKTEDTAVYYCVRHENFGNSYVSWFAHWGQGTLVTVSS
VL: ELVVTQEPSLTVSPGGTVTLTCRSSNGAVTSSNYANWVQQKPGQAPRGLIGGTNKRAPGTPARFSGSLNGGKAALTLSGVQPEDEAVYYCALWYPNLWVFGGGTKLTVL
notes: Pool 3 format (remarks)
As a reminder, the Kd is the free concentration of one partner at which half of the binding sites on the other are occupied at equilibrium, for simple one-to-one binding. Take B1: the Kd is 35.7 nM.

B2: AC3841 (CD3.337) (scFv, V domains shown)
VH: EVQLVESGGGIVQPGGSLRLSCAASGFTFNTYAMNWVRQAPGKGLEWVGRIRTKTNDYATYYADSVKGRFTISRDDSKNTLYLQMNSLKTEDTAVYYCVRHENFGNSYVSWFAHWGQGTLVTVSS
VL: ELVVTQEPSLTVSPGGTVTLTCRSSNGAVTSSNYANWVQQKPGQAPRGLIGGTNKRAPGTPARFSGSLLGGKAALTLSGVQPEDEAVYYCALWYPNLWVFGGGTKLTVL
notes: Pool 3 format (remarks)
For B2, binding was put at a Kd of 12.2 nM.

B3: AC3840 (CD3.336) (scFv, V domains shown)
VH: EVQLVESGGGIVQPGGSLRLSCAASGFTFNTYAMNWVRQAPGKGLEWVGRIRTKTNDYATYYADSVKGRFTISRDDSKNTAYLQMNSLKTEDTAVYYCVRHENFGNSYVSWFAHWGQGTLVTVSS
VL: ELVVTQEPSLTVSPGGTVTLTCRSSNGAVTSSNYANWVQQKPGQAPRGLIGGTNKRAPGTPARFSGSLLEGKAALTLSGVQPEDEAVYYCALWYPNLWVFGGGTKLTVL
notes: Pool 3 format (remarks)
With B3, binding was put at a Kd of 32.6 nM.

B4: AC3836 (CD3.332) (scFv, V domains shown)
VH: EVQLVESGGGIVQPGGSLRLSCAASGFTFNTYAMNWVRQAPGKGLEWVGRIRTKTNDYATYYADSVKGRFTISRDDSKNTAYLQMNSLKTEDTAVYYCVRHENFGNSYVSWFAHWGQGTLVTVSS
VL: ELVVTQEPSLTVSPGGTVTLTCRSSNGAVTSSNYANWVQQKPGQAPRGLIGGTNKRAPGTPARFSGSLEGGKAALTLSGVQPEDEAVYYCALWYPNLWVFGGGTKLTVL
notes: Pool 3 format (remarks)
Molecule B4 gave a Kd of 30.6 nM.

B5: AC3877 (CD3.373) (scFv, V domains shown)
VH: EVQLVESGGGIVQPGGSLRLSCAASGFTFSTYAMNWVRQAPGKGLEDVGRIRTKRNNYATYYADSVKGRFTISRDDSKNTVYLQMNSLKTEDTAVYYCVRHENFGNSYVSWFAHWGQGTLVTVSS
VL: ELVVTQEPSLTVSPGGTVTLTCRSSNGAVTSSNYANWVQQKPGQAPRGLIGGTNKRAPGTPARFSGSLLGGKAALTLSGVQPEDEAVYYCALWYPNLWVFGGGTKLTVL
notes: Pool 3 format (remarks)
B5 gave a Kd of 8.92 nM.

B6: AC3882 (CD3.378) (scFv, V domains shown)
VH: EVQLVESGGGIVQPGGSLRLSCAASGFTFSTYAMNWVRQAPGKGLEWVGRIRTKRNNYATYDADSVKGRFTISRDDSKNTVYLQMNSLKTEDTAVYYCVRHENFGNSYVSWFAHWGQGTLVTVSS
VL: ELVVTQEPSLTVSPGGTVTLTCRSSNGAVTSSNYANWVQQKPGQAPRGLIGGTNKRAPGTPARFSGSLLGGKAALTLSGVQPEDEAVYYCALWYPNLWVFGGGTKLTVL
notes: Pool 3 format (remarks)
On to B6, for which the affinity, expressed as Kd, was 3.74 nM.

B7: AC3837 (CD3.333) (scFv, V domains shown)
VH: EVQLVESGGGIVQPGGSLRLSCAASGFTFNTYAMNWVRQAPGKGLEWVGRIRTKTNDYATYYADSVKGRFTISRDDSKNTAYLQMNSLKTEDTAVYYCVRHENFGNSYVSWFAHWGQGTLVTVSS
VL: ELVVTQEPSLTVSPGGTVTLTCRSSNGAVTSSNYANWVQQKPGQAPRGLIGGTNKRAPGTPARFSGSLGGGKAALTLSGVQPEDEAVYYCALWYPNLWVFGGGTKLTVL
notes: Pool 3 format (remarks)
Regarding B7, binding was put at a Kd of 17.9 nM.

B8: AC3846 (CD3.342) (scFv, V domains shown)
VH: EVQLVESGGGIVQPGGSLRLSCAASGFTFNTYAMNWVRQAPGKGLEWVGRIRTKTNDYATYYADSVKGRFTISRDDSKNTLYLQMNSLKTEDTAVYYCVRHENFGNSYVSWFAHWGQGTLVTVSS
VL: ELVVTQEPSLTVSPGGTVTLTCRSSNGAVTSSNYANWVQQKPGQAPRGLIGGTNKRAPGTPARFSGSLGGGKAALTLSGVQPEDEAVYYCALWYPNLWVFGGGTKLTVL
notes: Pool 3 format (remarks)
For B8, the dissociation constant Kd was 9.99 nM.

B9: AC3845 (CD3.341) (scFv, V domains shown)
VH: EVQLVESGGGIVQPGGSLRLSCAASGFTFNTYAMNWVRQAPGKGLEWVGRIRTKTNDYATYYADSVKGRFTISRDDSKNTLYLQMNSLKTEDTAVYYCVRHENFGNSYVSWFAHWGQGTLVTVSS
VL: ELVVTQEPSLTVSPGGTVTLTCRSSNGAVTSSNYANWVQQKPGQAPRGLIGGTNKRAPGTPARFSGSLEGGKAALTLSGVQPEDEAVYYCALWYPNLWVFGGGTKLTVL
notes: Pool 3 format (remarks)
In turn, B9 gave a Kd of 15.8 nM.

B10: AC3849 (CD3.345) (scFv, V domains shown)
VH: EVQLVESGGGIVQPGGSLRLSCAASGFTFNTYAMNWVRQAPGKGLEWVGRIRTKTNDYATYYADSVKGRFTISRDDSKNTLYLQMNSLKTEDTAVYYCVRHENFGNSYVSWFAHWGQGTLVTVSS
VL: ELVVTQEPSLTVSPGGTVTLTCRSSNGAVTSSNYANWVQQKPGQAPRGLIGGTNKRAPGTPARFSGSLLEGKAALTLSGVQPEDEAVYYCALWYPNLWVFGGGTKLTVL
notes: Pool 3 format (remarks)
Consider B10, for which the Kd was 18 nM.

B11: AC3843 (CD3.339) (scFv, V domains shown)
VH: EVQLVESGGGIVQPGGSLRLSCAASGFTFNTYAMNWVRQAPGKGLEWVGRIRTKTNDYATYYADSVKGRFTISRDDSKNTLYLQMNSLKTEDTAVYYCVRHENFGNSYVSWFAHWGQGTLVTVSS
VL: ELVVTQEPSLTVSPGGTVTLTCRSSNGAVTSSNYANWVQQKPGQAPRGLIGGTNKRAPGTPARFSGSGLGGKAALTLSGVQPEDEAVYYCALWYPNLWVFGGGTKLTVL
notes: Pool 3 format (remarks)
B11 yielded a Kd of 15.4 nM.

B12: AC3880 (CD3.376) (scFv, V domains shown)
VH: EVQLVESGGGIVQPGGSLRLSCAASGFTFSTYAMNWVRQAPGKGLEWVGRIRTKPNNYATYYADSVKGRFTISRDDSKNTVYLQMNSLKTEDTAVYYCVRHENFGNSYVSWFAHWGQGTLVTVSS
VL: ELVVTQEPSLTVSPGGTVTLTCRSSNGAVTSSNYANWVQQKPGQAPRGLIGGTNKRAPGTPARFSGSLLGGKAALTLSGVQPEDEAVYYCALWYPNLWVFGGGTKLTVL
notes: Pool 3 format (remarks)
The molecule B12 showed a Kd of 12.9 nM.

B13: AC3838 (CD3.334) (scFv, V domains shown)
VH: EVQLVESGGGIVQPGGSLRLSCAASGFTFNTYAMNWVRQAPGKGLEWVGRIRTKTNDYATYYADSVKGRFTISRDDSKNTAYLQMNSLKTEDTAVYYCVRHENFGNSYVSWFAHWGQGTLVTVSS
VL: ELVVTQEPSLTVSPGGTVTLTCRSSNGAVTSSNYANWVQQKPGQAPRGLIGGTNKRAPGTPARFSGSLDGGKAALTLSGVQPEDEAVYYCALWYPNLWVFGGGTKLTVL
notes: Pool 3 format (remarks)
For the molecule B13, the Kd is 30.7 nM.

B14: AC3869 (CD3.365) (scFv, V domains shown)
VH: EVQLVESGGGIVQPGGSLRLSCAASGFTFSTYAMNWVRQAPGKGLEWVGRIRTKTNDYATYYADSVKGRFTISRDDSKNTLYLQMNSLKTEDTAVYYCVRHENFGNSYVSWFAHWGQGTLVTVSS
VL: ELVVTQEPSLTVSPGGTVTLTCRSSNGAVTSSNYANWVQQKPGQAPRGLIGGTNKRAPGTPARFSGSALGGKAALTLSGVQPEDEAVYYCALWYPNLWVFGGGTKLTVL
notes: Pool 3 format (remarks)
For the molecule B14, the affinity, expressed as Kd, was 18.8 nM.

B15: AC3857 (CD3.353) (scFv, V domains shown)
VH: EVQLVESGGGIVQPGGSLRLSCAASGFTFSTYAMNWVRQAPGKGLEWVGRIRTKTNNYATYYADSVKGRFTISRDDSKNTVYLQMNSLKTEDTAVYYCVRHENFGNSYVSWFAHWGQGTLVTVSS
VL: ELVVTQEPSLTVSPGGTVTLTCRSSNGAVTSSNYANWVQQKPGQAPRGLIGGTNKRAPGTPARFSGSLLGGKAGLTLSGVQPEDEAVYYCALWYPNLWVFGGGTKLTVL
notes: Pool 3 format (remarks)
For the molecule B15, the Kd was 12.3 nM.

B16: AC3848 (CD3.344) (scFv, V domains shown)
VH: EVQLVESGGGIVQPGGSLRLSCAASGFTFNTYAMNWVRQAPGKGLEWVGRIRTKTNDYATYYADSVKGRFTISRDDSKNTLYLQMNSLKTEDTAVYYCVRHENFGNSYVSWFAHWGQGTLVTVSS
VL: ELVVTQEPSLTVSPGGTVTLTCRSSNGAVTSSNYANWVQQKPGQAPRGLIGGTNKRAPGTPARFSGSLLGGKAGLTLSGVQPEDEAVYYCALWYPNLWVFGGGTKLTVL
notes: Pool 3 format (remarks)
B16 displayed a Kd of 14.2 nM.

B17: AC3847 (CD3.343) (scFv, V domains shown)
VH: EVQLVESGGGIVQPGGSLRLSCAASGFTFNTYAMNWVRQAPGKGLEWVGRIRTKTNDYATYYADSVKGRFTISRDDSKNTLYLQMNSLKTEDTAVYYCVRHENFGNSYVSWFAHWGQGTLVTVSS
VL: ELVVTQEPSLTVSPGGTVTLTCRSSNGAVTSSNYANWVQQKPGQAPRGLIGGTNKRAPGTPARFSGSLDGGKAALTLSGVQPEDEAVYYCALWYPNLWVFGGGTKLTVL
notes: Pool 3 format (remarks)
Consider B17, for which binding was characterised by a dissociation constant (Kd) of 14 nM.

B18: AC3839 (CD3.335) (scFv, V domains shown)
VH: EVQLVESGGGIVQPGGSLRLSCAASGFTFNTYAMNWVRQAPGKGLEWVGRIRTKTNDYATYYADSVKGRFTISRDDSKNTAYLQMNSLKTEDTAVYYCVRHENFGNSYVSWFAHWGQGTLVTVSS
VL: ELVVTQEPSLTVSPGGTVTLTCRSSNGAVTSSNYANWVQQKPGQAPRGLIGGTNKRAPGTPARFSGSLLGGKAGLTLSGVQPEDEAVYYCALWYPNLWVFGGGTKLTVL
notes: Pool 3 format (remarks)
For the molecule B18, binding was characterised by a dissociation constant (Kd) of 24.5 nM.

B19: AC3867 (CD3.363) (scFv, V domains shown)
VH: EVQLVESGGGIVQPGGSLRLSCAASGFTFSTYAMNWVRQAPGKGLEWVGRIRTKTNDYATYYADSVKGRFTISRDDSKNTAYLQMNSLKTEDTAVYYCVRHENFGNSYVSWFAHWGQGTLVTVSS
VL: ELVVTQEPSLTVSPGGTVTLTCRSSNGAVTSSNYANWVQQKPGQAPRGLIGGTNKRAPGTPARFSGSLLEGKAALTLSGVQPEDEAVYYCALWYPNLWVFGGGTKLTVL
notes: Pool 3 format (remarks)
Molecule B19 showed a Kd of 62.7 nM.

B20: AC3842 (CD3.338) (scFv, V domains shown)
VH: EVQLVESGGGIVQPGGSLRLSCAASGFTFNTYAMNWVRQAPGKGLEWVGRIRTKTNDYATYYADSVKGRFTISRDDSKNTLYLQMNSLKTEDTAVYYCVRHENFGNSYVSWFAHWGQGTLVTVSS
VL: ELVVTQEPSLTVSPGGTVTLTCRSSNGAVTSSNYANWVQQKPGQAPRGLIGGTNKRAPGTPARFSGSALGGKAALTLSGVQPEDEAVYYCALWYPNLWVFGGGTKLTVL
notes: Pool 3 format (remarks)
Consider B20, for which the Kd stood at 17 nM.

B21: AC3844 (CD3.340) (scFv, V domains shown)
VH: EVQLVESGGGIVQPGGSLRLSCAASGFTFNTYAMNWVRQAPGKGLEWVGRIRTKTNDYATYYADSVKGRFTISRDDSKNTLYLQMNSLKTEDTAVYYCVRHENFGNSYVSWFAHWGQGTLVTVSS
VL: ELVVTQEPSLTVSPGGTVTLTCRSSNGAVTSSNYANWVQQKPGQAPRGLIGGTNKRAPGTPARFSGSLNGGKAALTLSGVQPEDEAVYYCALWYPNLWVFGGGTKLTVL
notes: Pool 3 format (remarks)
Regarding B21, the Kd was 10.6 nM.
